Experimental data from paper PMC8547449 (2021).

Target: T1, C4b-binding protein (human, UniProt P04003 49-597; P20851 18-252)
T1 chain 1: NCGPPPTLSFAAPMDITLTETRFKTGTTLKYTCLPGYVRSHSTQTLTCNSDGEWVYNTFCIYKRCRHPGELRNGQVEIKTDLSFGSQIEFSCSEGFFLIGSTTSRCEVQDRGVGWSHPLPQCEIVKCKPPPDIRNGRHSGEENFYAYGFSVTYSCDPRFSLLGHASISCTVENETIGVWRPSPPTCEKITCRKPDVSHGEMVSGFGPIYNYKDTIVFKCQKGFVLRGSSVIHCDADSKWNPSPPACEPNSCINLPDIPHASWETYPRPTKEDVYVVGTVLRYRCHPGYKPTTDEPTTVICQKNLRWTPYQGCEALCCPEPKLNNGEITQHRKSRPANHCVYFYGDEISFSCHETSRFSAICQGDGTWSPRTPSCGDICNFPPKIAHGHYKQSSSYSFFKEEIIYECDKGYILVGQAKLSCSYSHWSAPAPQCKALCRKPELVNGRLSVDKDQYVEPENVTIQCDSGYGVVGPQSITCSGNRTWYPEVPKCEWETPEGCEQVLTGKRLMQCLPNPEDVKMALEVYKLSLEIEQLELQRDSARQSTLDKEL
T1 chain 2: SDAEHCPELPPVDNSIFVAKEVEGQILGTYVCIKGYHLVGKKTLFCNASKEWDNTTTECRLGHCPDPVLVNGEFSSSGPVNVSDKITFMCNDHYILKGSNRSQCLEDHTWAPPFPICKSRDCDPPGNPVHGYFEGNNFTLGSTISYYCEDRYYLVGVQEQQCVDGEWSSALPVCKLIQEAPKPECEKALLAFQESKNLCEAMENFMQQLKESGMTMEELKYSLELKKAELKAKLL
Assay: SPR

B1: M28 protein, recombinant, affinity tag removed by TEV protease (natural protein)
chain: AESPKSTETSANGADKLADAYNTLLTEHEKLRDEYYTLIDAKEEEPRYKALRGENQDLREKEGKYQDKIKKLEEKEKNLEKKSEDVERHYLKKLDQEHKEQEERQKNLEELERQSQREIDKRYQEQLQKQQQLETEKQISEASRKSLSRDLEASRAAKKDLEAEHQKLKEEKQISDASRQGLSRDLEASRAAKKDLEAEHQKLKEEKQISDASRQGLSRDLEASREAKKKVEADLAEANSKLQALEKLNKELEEGKKLSEKEKAELQARLEAEAKALKEQLAKQAEELAKLKGNQTPNAKVAPQANRSRSAMTQQKR
How did the Kd turn out when B1 was run?
The Kd was 0.188 nM.
